Consider 3 molecules from patent publication US20220298244A1 (BEIJING MABWORKS BIOTECH, published 2022).

Assay [1] concerns the target T1, human PD-L1 expressed on HEK293A cells (human, UniProt Q9NZQ7 19-290).
T1 construct: Full-length cDNA expressed stably; also called HEK293A/human PD-L1 cells; HEK293A/human PD-L1
The experiment in a line: FACS on HEK293A/human PD-L1 cells, serially diluted antibody (protocol of Example 4). As for the experimental part: (§1) To determine whether the anti-PD-L1 antibodies bound to human, monkey or mouse PD-L1s expressed on HEK293A cells, a cell-based binding assay was performed by FACS using the HEK293A cells stably overexpressing human, monkey and mouse PD-L1s respectively as generated in Example 1. Briefly, 10⁵ HEK293A cells in 100 μl culture medium were seeded onto each well of the 96-well plates, to which added 50 μl serially diluted anti-PD-L1 antibodies. After incubated at 4° C. for 1 hour, plates were washed 3 times with PBST. Then, APC coupled Goat Anti-Mouse IgG (Cat #:405308, BioLegend, US) diluted 500× was added to the plates. After incubation at 4° C. for 1 hour, the plates were washed with PBS for 3 times and then cell fluorescence was monitored using a FACS machine (BD).

Assay [2] addresses T1, human PD-L1 expressed on HEK293A cells. In words: FACS blocking assay on HEK293A/human PD-L1 cells; blocked ligand PD1-hFc (protocol of Example 6). As for the experimental part: (§2) Briefly, 10⁵ HEK293A/human PD-L1 cells in 100 μl culture medium were seeded onto each well of 96-well plates, to which added 50 μl serially diluted anti-PD-L1 antibodies. After incubated at 4° C. for 1 hour, the plates were washed 3 times with PBST. […] After incubation at 4° C. for 1 hour, the plates were washed with PBST for 3 times, and added with PE coupled Goat Anti-human IgG (Cat #:PAI-86078, Thermofisher, US) diluted 500×. After incubation at 4° C. for 1 hour, the plates were washed with PBST for 3 times and then cell fluorescence was monitored using a FACS machine (BD).

Another assay concerns the target T2, mouse PD-L1(ECD)-his (mouse, UniProt Q9EP73 19-239).
T2 construct: Bought protein; also called mouse PD-L1-his; Cat #:50010-M08H, Sino Biological; not shown: His tag
The experiment in a line: direct ELISA on coated mouse PD-L1(ECD)-his. As for the experimental part:
(§3) Species-cross-reactivities of the anti-PD-L1 mAbs to monkey or mouse PD-L1s were further assessed by direct ELISA. Briefly, 96-well ELISA plates were coated with 500 ng/ml monkey PD-L1 (ECD)-his (Cat #:90251-C08H, Sino Biological, CN) or mouse PD-L1(ECD)-his (Cat #:50010-M08H, Sino Biological, CN), 100 μl per well, then added and incubated with 100 μl serially diluted anti-PD-L1 antibodies (starting at 40 μg/ml). The plates were then added and incubated with Goat anti-human IgG conjugated with HRP (Cat #:31410, Thermal, US) for 1 hour at room temperature. Plates were developed with freshly prepared Ultra-TMB (Cat #:555214, BD, US) for 5 minutes at room temperature, and absorbance was read on a SpectraMax^R i3X reader (Molecular Devies, US) at 450 nm.

A further assay has as its target T3, human PD-L1 (ECD)-his (human, UniProt Q9NZQ7 19-238).
T3 construct: Bought protein; it is not tied to the bought construct by a sentence of its own; also called recombinant human PD-L1(ECD)-his; Cat #:10084-H08H, Sino Biological; not shown: His tag
In words: ELISA on coated human PD-L1 (ECD)-his. As for the experimental part: The chimeric anti-PD-L1 antibodies were further characterized for their abilities of binding to human PD-L1, monkey PD-L1 and mouse PD-L1. Briefly, ELISA plates were coated with 500 ng/ml human PD-L1 (ECD)-his (Cat #:10084-H08H, Sino Biological, CN), 100 μl per well, at 4° C. overnight. The wells were blocked with 200 μl blocking buffer (PBS containing 1% BSA, 1% goat serum and 0.05% Tween 20) for 2 hours at room temperature, added and incubated with 100 μl serially diluted anti-PD-L1 antibodies (starting at 40 μg/ml) for 1 hour at room temperature. The plates were washed for 3 times with PBST (PBS+0.05% Tween 20), added with Goat-anti-human IgG-HRP (Cat #:31410, Thermal, US) diluted 5000×, and incubated for 1 hour at room temperature. Plates were developed with freshly prepared Ultra-TMB (Cat #:555214, BD, US) for 5 minutes at room temperature. Absorbance was read on a SpectraMax^R i3X reader (Molecular Devies, US) at 450 nm.
On the technique in general: An ELISA detects its analyte on a solid surface through an enzyme-linked reagent.

Another assay deals with T4, monkey PD-L1 (ECD)-his (monkey, UniProt Q9NZQ7 19-238 (human entry)).
T4 construct: Bought protein; also called Cat #:90251-C08H, Sino Biological; not shown: His tag
T4 sequence (Q9NZQ7 other isoform, or with tags, fused parts or gaps): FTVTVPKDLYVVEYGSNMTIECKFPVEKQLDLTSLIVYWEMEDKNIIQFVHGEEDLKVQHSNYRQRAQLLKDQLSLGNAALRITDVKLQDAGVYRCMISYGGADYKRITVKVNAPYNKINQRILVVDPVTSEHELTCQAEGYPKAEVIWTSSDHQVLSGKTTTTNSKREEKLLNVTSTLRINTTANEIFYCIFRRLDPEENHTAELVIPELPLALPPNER
The experiment in a line: ELISA on coated monkey PD-L1 (ECD)-his. As for the experimental part:
as §3

The target of assay [3] is T5, monkey PD-L1 expressed on HEK293A cells (monkey (cynomolgus), UniProt Q9NZQ7 19-290 (human entry)).
T5 construct: Full-length cDNA expressed stably; also called HEK293A/monkey PD-L1 cells; HEK293A/monkey PD-L1
T5 sequence (Q9NZQ7 other isoform, or with tags, fused parts or gaps limits assumed): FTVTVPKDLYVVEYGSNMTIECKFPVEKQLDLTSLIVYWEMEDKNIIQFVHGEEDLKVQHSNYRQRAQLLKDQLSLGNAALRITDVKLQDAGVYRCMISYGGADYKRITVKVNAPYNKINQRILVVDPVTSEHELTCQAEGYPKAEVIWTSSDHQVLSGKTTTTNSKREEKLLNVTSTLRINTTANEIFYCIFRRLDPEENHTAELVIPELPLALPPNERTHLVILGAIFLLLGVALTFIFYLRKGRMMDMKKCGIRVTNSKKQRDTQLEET
In words: FACS on HEK293A/monkey PD-L1 cells, serially diluted antibody (protocol of Example 4). How it is done: as §1

Assay [4] concerns the target T6, mouse PD-L1 expressed on HEK293A cells (mouse, UniProt Q9EP73 19-290).
T6 construct: Full-length cDNA expressed stably; also called HEK293A/mouse PD-L1 cells; HEK293A/mouse PD-L1
The experiment in a line: FACS on HEK293A/mouse PD-L1 cells, serially diluted antibody (protocol of Example 4). As for the experimental part:
as §1

Assay [5] concerns the target T6, mouse PD-L1 expressed on HEK293A cells. In words: FACS on HEK293A/mouse PD-L1 cells. As for the experimental part: as §1
The target in assay [6] is T5, monkey PD-L1 expressed on HEK293A cells. The experiment in a line: FACS on HEK293A/monkey PD-L1 cells. As for the experimental part: as §1
Assay [7] concerns the target T1, human PD-L1 expressed on HEK293A cells. In words: FACS blocking assay: antibody titrated on HEK293A/human PD-L1 cells, then PD1-hFc (200 µg/ml) detected. How it is done: as §2
Assay [8] has the same target. The experiment in a line: FACS on HEK293A/human PD-L1 cells. As for the experimental part: as §1

T1 sequence (Q9NZQ7 19-290 limits assumed): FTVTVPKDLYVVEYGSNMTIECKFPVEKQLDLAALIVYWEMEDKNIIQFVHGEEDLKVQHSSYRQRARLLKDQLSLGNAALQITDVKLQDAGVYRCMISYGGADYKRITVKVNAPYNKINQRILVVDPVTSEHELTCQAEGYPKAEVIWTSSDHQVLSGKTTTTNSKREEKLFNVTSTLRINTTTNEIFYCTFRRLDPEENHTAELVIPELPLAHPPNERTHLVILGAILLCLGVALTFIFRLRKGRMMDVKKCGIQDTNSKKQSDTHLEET
T6 sequence (Q9EP73 19-290 limits assumed): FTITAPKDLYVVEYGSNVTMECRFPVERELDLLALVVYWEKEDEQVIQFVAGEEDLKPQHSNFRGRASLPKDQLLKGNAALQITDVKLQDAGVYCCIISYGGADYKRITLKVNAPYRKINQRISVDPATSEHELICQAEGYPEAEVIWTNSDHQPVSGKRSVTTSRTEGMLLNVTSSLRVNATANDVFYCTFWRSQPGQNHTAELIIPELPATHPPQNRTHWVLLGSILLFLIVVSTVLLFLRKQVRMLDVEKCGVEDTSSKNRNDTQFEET
T2 sequence (Q9EP73 19-239): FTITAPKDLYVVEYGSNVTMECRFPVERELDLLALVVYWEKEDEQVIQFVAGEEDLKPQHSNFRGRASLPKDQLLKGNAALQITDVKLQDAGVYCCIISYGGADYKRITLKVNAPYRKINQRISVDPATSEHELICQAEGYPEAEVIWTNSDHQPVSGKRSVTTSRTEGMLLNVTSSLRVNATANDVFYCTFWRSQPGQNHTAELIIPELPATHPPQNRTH
T3 sequence (Q9NZQ7 19-238): as the sequence (Q9NZQ7 other isoform, or with tags, fused parts or gaps) above, with T33A, S34A, N62S, Q68R, R82Q, L173F, A185T, I192T, L215H counted along it

B1: chimeric 3C2 antibody (antibody, human IgG1, kappa, N297A, V domains shown)
VH: QVQLNQSGPELMKAGTSVKISCKASGYSFTDYHVNWVKQRPGQGLEWIGWIFPGSGRTFYTDKFKGKATLTVDLSFTTAYIMLNSLTSEDSAVYFCATDYGTSGYGLVYWGQGTSVTVSS
VL: DIQMTQSSSYLSVSLGGRVTISCKASDRINNWLAWYQQKPGNAPRLLISGATSLETGVPSRFSGSGSGKDYTLSITSLQTEDVAVYYCQQYWNIPFTFGSGTKLEIKR
On to B1, for which the concentration giving a half-maximal response (EC50 (read off the curve)) in [1] and in assay [3] was around 0.1 µg/mL in each case. Also, in assay [2], the “IC50 (read off the curve)” value is around 0.2 µg/mL. The binding result is “no binding (tested: starting at 40 µg/ml)” in the assay with mouse PD-L1(ECD)-his and “no binding (tested: LOG Con. about 4.6 (about 40000 ng/ml))” in assay [4]. In addition, the results for the EC50 with human PD-L1 (ECD)-his and with monkey PD-L1 (ECD)-his were 0.0456 nM and 0.172 nM, respectively.

B2: chimeric 56E5 antibody (antibody, human IgG1, kappa, N297A, V domains shown)
VH: EVQLQESGPGLAKPSQTLSLTCSVTGYSITSDYWNWIRKFPGNKLEYMGYISYTGSTYYNPSLKSRISITRDTSKNQYYLQLNSVTTEDTATYYCARYRDWDVRAMDYWGQGTSVTVSS
VL: DIVMTQSPSSLTVTAGEKVTMNCKSSQSLLISGNQKNFLTWYQQKPGQPPKLLIYWASTRESGVPDRFTGSGSGTDFTLTISSVQAEDLAVYYCQNDFGFPFTFGSGTKLEIKR
Take B2: the “EC50 (read off the curve)” value in assay [1] was around 0.05 µg/mL; in assay [3], around 0.04 µg/mL. For the same molecule, the “IC50 (read off the curve)” value in assay [2] is around 0.03 µg/mL. Besides, the values for the binding result (in the assay with mouse PD-L1(ECD)-his; in assay [4]) were “no binding (tested: starting at 40 µg/ml)” and “no binding (tested: LOG Con. about 4.6 (about 40000 ng/ml))”, respectively. Also, the EC50 with human PD-L1 (ECD)-his was found to be 0.348 nM; with monkey PD-L1 (ECD)-his, 2.05 nM.

B3: mouse anti-PD-L1 monoclonal antibody 56E5 (antibody, mouse IgG1, V domains shown)
VH: B2 VH
VL: DIVMTQSPSSLTVTAGEKVTMNCKSSQSLLISGNQKNFLTWYQQKPGQPPKLLIYWASTRESGVPDRFTGSGSGTDFTLTISSVQAEDLAVYYCQNDFGFPFTFGSGTKLEIK
notes: Purified from hybridoma; also called Mouse 56E5
For the molecule B3, the binding result in assay [5] was “no binding”. The results for the EC50 in assay [6], in assay [7] and in [8] were 0.499 nM, 0.01 nM and 0.572 nM, respectively.

Usually EC50 (read off the curve) stands for the concentration that produces a half-maximal response. A word on the EC50: it is the concentration at which the effect is half-maximal.
